Test results published in the array DNA melting data of Ke et al..

Assay: melting temperature; melt of duplexes
Conditions: sodium 0.0675 M; strand 1 µM

In order of rising Tm:
1. CGACGTGCCTAATGTGCTG+CAGCACATCGTGCACGTCG ((((((((...((((((((+))))))))...))))))))  43.1 °C
2. CGACGTGCACCATGTGCTG+CAGCACATTTGGCACGTCG ((((((((...((((((((+))))))))...))))))))  44.6 °C
3. CGACGTGCCGTATGTGCTG+CAGCACATTGTGCACGTCG ((((((((...((((((((+))))))))...))))))))  45.5 °C
4. CGACGTGCCCCATGTGCTG+CAGCACATTTCGCACGTCG ((((((((...((((((((+))))))))...))))))))  46 °C
5. CGACGTGCATAATGTGCTG+CAGCACATCGCGCACGTCG ((((((((...((((((((+))))))))...))))))))  46.9 °C
6. CGACGTGCCTGATGTGCTG+CAGCACATGCCGCACGTCG ((((((((...((((((((+))))))))...))))))))  47.5 °C
7. CGACGTGCCTTATGTGCTG+CAGCACATCATGCACGTCG ((((((((.(.((((((((+)))))))).).))))))))  47.7 °C
8. CGACGTGCCCTATGTGCTG+CAGCACATTGTGCACGTCG ((((((((.(.((((((((+)))))))).).))))))))  47.8 °C
9. CGACGTGCCTCATGTGCTG+CAGCACATTCAGCACGTCG ((((((((...((((((((+))))))))...))))))))  47.9 °C
10. CGACGTGCTCAATGTGCTG+CAGCACATACGGCACGTCG ((((((((...((((((((+))))))))...))))))))  48.1 °C
11. CGACGTGCCGCATGTGCTG+CAGCACATATAGCACGTCG ((((((((...((((((((+))))))))...))))))))  48.2 °C
12. CGACGTGCCAAATGTGCTG+CAGCACATAATGCACGTCG ((((((((...((((((((+))))))))...))))))))  48.2 °C
13. CGACGTGCCTTATGTGCTG+CAGCACATCGAGCACGTCG ((((((((...((((((((+))))))))...))))))))  48.3 °C
14. CGACGTGCTCTATGTGCTG+CAGCACATGCGGCACGTCG ((((((((...((((((((+))))))))...))))))))  48.5 °C
15. CGACGTGCTCTATGTGCTG+CAGCACATTCGGCACGTCG ((((((((...((((((((+))))))))...))))))))  48.7 °C
16. CGACGTGCTACATGTGCTG+CAGCACATTACGCACGTCG ((((((((...((((((((+))))))))...))))))))  48.7 °C
17. CGACGTGCAGCATGTGCTG+CAGCACATCCGGCACGTCG ((((((((.(.((((((((+)))))))).).))))))))  49 °C
18. CGACGTGCCAAATGTGCTG+CAGCACATAGAGCACGTCG ((((((((...((((((((+))))))))...))))))))  49.1 °C
19. CGACGTGCAAGATGTGCTG+CAGCACATACGGCACGTCG ((((((((...((((((((+))))))))...))))))))  49.2 °C
20. CGACGTGCGCTATGTGCTG+CAGCACATTTGGCACGTCG ((((((((...((((((((+))))))))...))))))))  49.2 °C
21. CGACGTGCTTGATGTGCTG+CAGCACATACGGCACGTCG ((((((((...((((((((+))))))))...))))))))  49.2 °C
22. CGACGTGCCAAATGTGCTG+CAGCACATCTAGCACGTCG ((((((((.(.((((((((+)))))))).).))))))))  49.3 °C
23. CGACGTGCTATATGTGCTG+CAGCACATTACGCACGTCG ((((((((...((((((((+))))))))...))))))))  49.3 °C
24. CGACGTGCCAAATGTGCTG+CAGCACATCGAGCACGTCG ((((((((...((((((((+))))))))...))))))))  49.6 °C
25. CGACGTGCGCCATGTGCTG+CAGCACATTCAGCACGTCG ((((((((...((((((((+))))))))...))))))))  49.8 °C
26. CGACGTGCATGATGTGCTG+CAGCACATGGGGCACGTCG ((((((((...((((((((+))))))))...))))))))  50 °C
27. CGACGTGCTAAATGTGCTG+CAGCACATGCTGCACGTCG ((((((((...((((((((+))))))))...))))))))  50.1 °C
28. CGACGTGCACCATGTGCTG+CAGCACATGCGGCACGTCG ((((((((..(((((((((+)))))))))..))))))))  50.4 °C
29. CGACGTGCAGTATGTGCTG+CAGCACATGGAGCACGTCG ((((((((...((((((((+))))))))...))))))))  50.6 °C
30. CGACGTGCTGAATGTGCTG+CAGCACATAGGGCACGTCG ((((((((...((((((((+))))))))...))))))))  50.7 °C
31. CGACGTGCTATATGTGCTG+CAGCACATACGGCACGTCG ((((((((..(((((((((+)))))))))..))))))))  50.7 °C
32. CGACGTGCCTGATGTGCTG+CAGCACATTAAGCACGTCG ((((((((.(.((((((((+)))))))).).))))))))  50.8 °C
33. CGACGTGCTTTATGTGCTG+CAGCACATATGGCACGTCG ((((((((..(((((((((+)))))))))..))))))))  51.6 °C
34. CGACGTGCCTGATGTGCTG+CAGCACATGGAGCACGTCG ((((((((...((((((((+))))))))...))))))))  51.6 °C
35. CGACGTGCCTGATGTGCTG+CAGCACATAAAGCACGTCG ((((((((.(.((((((((+)))))))).).))))))))  51.7 °C
36. CGACGTGCGGAATGTGCTG+CAGCACATAATGCACGTCG ((((((((...((((((((+))))))))...))))))))  52 °C
37. CGACGTGCGACATGTGCTG+CAGCACATTTAGCACGTCG ((((((((.(.((((((((+)))))))).).))))))))  52.2 °C
38. CGACGTGCGTAATGTGCTG+CAGCACATCATGCACGTCG ((((((((.(.((((((((+)))))))).).))))))))  52.3 °C
39. CGACGTGCGAGATGTGCTG+CAGCACATACAGCACGTCG ((((((((...((((((((+))))))))...))))))))  52.6 °C
40. CGACGTGCTGCATGTGCTG+CAGCACATCGCGCACGTCG ((((((((...((((((((+))))))))...))))))))  52.6 °C
41. CGACGTGCGCAATGTGCTG+CAGCACATCTCGCACGTCG (((((((((..((((((((+))))))))..)))))))))  52.8 °C
42. CGACGTGCAAAATGTGCTG+CAGCACATGAAGCACGTCG ((((((((...((((((((+))))))))...))))))))  53.7 °C
43. CGACGTGCTCCATGTGCTG+CAGCACATGTGGCACGTCG ((((((((..(((((((((+)))))))))..))))))))  53.8 °C
44. CGACGTGCCCAATGTGCTG+CAGCACATCTGGCACGTCG (((((((((..((((((((+))))))))..)))))))))  53.8 °C
45. CGACGTGCGGCATGTGCTG+CAGCACATCCAGCACGTCG ((((((((.(.((((((((+)))))))).).))))))))  53.9 °C
46. CGACGTGCCATATGTGCTG+CAGCACATGCGGCACGTCG (((((((((..((((((((+))))))))..)))))))))  54.1 °C
47. CGACGTGCAGAATGTGCTG+CAGCACATGCGGCACGTCG ((((((((.(.((((((((+)))))))).).))))))))  54.4 °C
48. CGACGTGCGATATGTGCTG+CAGCACATTACGCACGTCG (((((((((..((((((((+))))))))..)))))))))  54.7 °C
49. CGACGTGCGACATGTGCTG+CAGCACATGCTGCACGTCG ((((((((..(((((((((+)))))))))..))))))))  54.7 °C
50. CGACGTGCTATATGTGCTG+CAGCACATATCGCACGTCG ((((((((.((((((((((+)))))))))).))))))))  54.9 °C
51. CGACGTGCACGATGTGCTG+CAGCACATGGGGCACGTCG ((((((((.(.((((((((+)))))))).).))))))))  54.9 °C
52. CGACGTGCTATATGTGCTG+CAGCACATTTAGCACGTCG ((((((((((.((((((((+)))))))).))))))))))  55.3 °C
53. CGACGTGCATGATGTGCTG+CAGCACATCGAGCACGTCG ((((((((..(((((((((+)))))))))..))))))))  56.1 °C
54. CGACGTGCGGAATGTGCTG+CAGCACATTGAGCACGTCG ((((((((..(((((((((+)))))))))..))))))))  56.2 °C
55. CGACGTGCCTCATGTGCTG+CAGCACATAAGGCACGTCG ((((((((((.((((((((+)))))))).))))))))))  56.2 °C
56. CGACGTGCAGTATGTGCTG+CAGCACATCCTGCACGTCG ((((((((((.((((((((+)))))))).))))))))))  56.3 °C
57. CGACGTGCGCAATGTGCTG+CAGCACATGGGGCACGTCG ((((((((.(.((((((((+)))))))).).))))))))  56.5 °C
58. CGACGTGCCAAATGTGCTG+CAGCACATGGGGCACGTCG (((((((((..((((((((+))))))))..)))))))))  56.6 °C
59. CGACGTGCCATATGTGCTG+CAGCACATGGGGCACGTCG (((((((((..((((((((+))))))))..)))))))))  56.7 °C
60. CGACGTGCCATATGTGCTG+CAGCACATAAGGCACGTCG (((((((((.(((((((((+))))))))).)))))))))  56.9 °C
61. CGACGTGCTGTATGTGCTG+CAGCACATATAGCACGTCG (((((((((.(((((((((+))))))))).)))))))))  57 °C
62. CGACGTGCATGATGTGCTG+CAGCACATCTTGCACGTCG (((((((((.(((((((((+))))))))).)))))))))  58.3 °C
63. CGACGTGCCTAATGTGCTG+CAGCACATTTGGCACGTCG (((((((((.(((((((((+))))))))).)))))))))  58.7 °C
64. CGACGTGCACCATGTGCTG+CAGCACATGGCGCACGTCG ((((((((.((((((((((+)))))))))).))))))))  59.2 °C
65. CGACGTGCGGCATGTGCTG+CAGCACATACCGCACGTCG ((((((((((.((((((((+)))))))).))))))))))  60 °C
66. CGACGTGCGGAATGTGCTG+CAGCACATTCTGCACGTCG ((((((((.((((((((((+)))))))))).))))))))  61.1 °C
67. CGACGTGCAATATGTGCTG+CAGCACATATTGCACGTCG (((((((((((((((((((+)))))))))))))))))))  61.2 °C
68. CGACGTGCGATATGTGCTG+CAGCACATAGCGCACGTCG (((((((((.(((((((((+))))))))).)))))))))  61.3 °C
69. CGACGTGCCACATGTGCTG+CAGCACATGGGGCACGTCG (((((((((.(((((((((+))))))))).)))))))))  63.6 °C
70. CGACGTGCTACATGTGCTG+CAGCACATGTAGCACGTCG (((((((((((((((((((+)))))))))))))))))))  63.6 °C
71. CGACGTGCGGGATGTGCTG+CAGCACATCGCGCACGTCG (((((((((.(((((((((+))))))))).)))))))))  63.7 °C
72. CGACGTGCGGCATGTGCTG+CAGCACATGGCGCACGTCG (((((((((.(((((((((+))))))))).)))))))))  65.9 °C
